# Experimental data published in the Human Domainome abundance scans (Beltran et al. 2025).
# ± gives the uncertainty stated by the source.
# B1: Ventral anterior homeobox 1, residues 102 to 157; numbered along this chain, Q5SQQ9 (parent)
# chain: RTRTSFTAEQLYRLEMEFQRCQYVVGRERTELARQLNLSETQVKVWFQNRRTKQKK
# Variants of: B1
# Experiment: abundance fitness (aPCA) (normalised: wild type 0, dead -1); higher = more abundant; growth selection in yeast, the domain comes from the species named
# Conditions: Homo sapiens
row,Variant,abundance fitness
1,L14C,-0.518 ± 0.23
2,M16S,-0.027 ± 0.13
3,M16K,-0.301 ± 0.21
4,M16V,-0.09 ± 0.12
5,M16G,-0.109 ± 0.11
6,M16Y,-0.173 ± 0.22
7,M16W,-0.291 ± 0.16
8,R3K,0.168 ± 0.13
9,R3P,0.164 ± 0.091
10,R3F,0.209 ± 0.098
11,R3Y,0.071 ± 0.1
12,R3N,0.268 ± 0.098
13,R34Q,-0.361 ± 0.3
14,R34C,-0.395 ± 0.4
15,R34D,-0.203 ± 0.36
16,R34K,-0.197 ± 0.3
17,T30Q,-0.329 ± 0.39
18,T30R,-0.429 ± 0.16
19,T30A,-0.102 ± 0.16
20,T30V,-0.064 ± 0.16
21,T30D,-0.468 ± 0.36

row,Variant,abundance fitness
1,T30I,-0.211 ± 0.21
2,F6C,-0.536 ± 0.26
3,F6W,-0.052 ± 0.12
4,F6G,-0.427 ± 0.1
5,F6A,-0.616 ± 0.22
6,F6S,-0.729 ± 0.14
7,F6M,0.049 ± 0.22
8,F6N,-0.43 ± 0.33
9,R20T,-0.305 ± 0.24
10,R20L,-0.223 ± 0.14
11,R20Q,-0.226 ± 0.2
12,R20Y,-0.436 ± 0.29
13,R20W,-0.632 ± 0.28
14,R20N,0.251 ± 0.29
15,R20F,-0.47 ± 0.26
16,R20D,0.149 ± 0.31
17,L11E,0.308 ± 0.14
18,L11P,-0.893 ± 0.17
19,L11R,-0.61 ± 0.12
20,R51V,-0.319 ± 0.12
21,R51K,-0.365 ± 0.32

row,Variant,abundance fitness
1,R51W,-0.243 ± 0.14
2,R51Y,-0.091 ± 0.21
3,R51I,0.068 ± 0.26
4,R51M,-0.333 ± 0.25
5,R51F,-0.2 ± 0.25
6,Q35T,-0.205 ± 0.23
7,Q35W,-0.304 ± 0.17
8,Q35N,-0.206 ± 0.24
9,Q35F,-0.292 ± 0.21
10,Q35L,-0.135 ± 0.14
11,Q35A,0.052 ± 0.13
12,Q35H,-0.167 ± 0.26
13,Q35Y,-0.414 ± 0.2
14,Q35S,0.037 ± 0.12
15,W46Q,-0.958 ± 0.28
16,K55Q,0.29 ± 0.21
17,K55D,0.305 ± 0.17
18,K55R,-0.187 ± 0.1
19,K55W,-0.105 ± 0.12
20,K55N,0.081 ± 0.18
21,K55L,0.128 ± 0.11

row,Variant,abundance fitness
1,Y12F,-0.13 ± 0.21
2,Y12W,0.001 ± 0.15
3,Y12C,-0.176 ± 0.2
4,T52Q,-0.145 ± 0.15
5,T52R,-0.249 ± 0.098
6,T52L,-0.141 ± 0.1
7,T52C,-0.165 ± 0.17
8,T52A,-0.11 ± 0.12
9,T52G,0.137 ± 0.09
10,T52K,0.091 ± 0.16
11,T52N,-0.037 ± 0.25
12,A33L,-0.693 ± 0.17
13,A33T,-0.557 ± 0.28
14,A33Q,-0.989 ± 0.38
15,A33D,-0.938 ± 0.3
16,A33G,-0.375 ± 0.092
17,A33C,-0.295 ± 0.16
18,A33V,-0.786 ± 0.17
19,L32A,-0.791 ± 0.34
20,L32W,-1.04 ± 0.27
21,L32V,-0.542 ± 0.19
